The target in this test is T1, MUC1 carrying sialylated Core-1 glycans expressed by the breast cancer cell line T47D (UniProt P15941 24-1255, limits assumed, O-linked sialylated Core-1 glycans).
T1 construct: whole, on cells; also called MUC1-ST on T47D cells; T47D cells (MUC1-ST+ve)
The test is described as follows: staining of FFPE T47D cells with human Siglec-9 IgG fusion, DAB.

These results are taken from patent US20190211099A1 (KING S COLLEGE LONDON, published 2019).

T1 sequence (P15941 24-1255 limits assumed, stated change not applied): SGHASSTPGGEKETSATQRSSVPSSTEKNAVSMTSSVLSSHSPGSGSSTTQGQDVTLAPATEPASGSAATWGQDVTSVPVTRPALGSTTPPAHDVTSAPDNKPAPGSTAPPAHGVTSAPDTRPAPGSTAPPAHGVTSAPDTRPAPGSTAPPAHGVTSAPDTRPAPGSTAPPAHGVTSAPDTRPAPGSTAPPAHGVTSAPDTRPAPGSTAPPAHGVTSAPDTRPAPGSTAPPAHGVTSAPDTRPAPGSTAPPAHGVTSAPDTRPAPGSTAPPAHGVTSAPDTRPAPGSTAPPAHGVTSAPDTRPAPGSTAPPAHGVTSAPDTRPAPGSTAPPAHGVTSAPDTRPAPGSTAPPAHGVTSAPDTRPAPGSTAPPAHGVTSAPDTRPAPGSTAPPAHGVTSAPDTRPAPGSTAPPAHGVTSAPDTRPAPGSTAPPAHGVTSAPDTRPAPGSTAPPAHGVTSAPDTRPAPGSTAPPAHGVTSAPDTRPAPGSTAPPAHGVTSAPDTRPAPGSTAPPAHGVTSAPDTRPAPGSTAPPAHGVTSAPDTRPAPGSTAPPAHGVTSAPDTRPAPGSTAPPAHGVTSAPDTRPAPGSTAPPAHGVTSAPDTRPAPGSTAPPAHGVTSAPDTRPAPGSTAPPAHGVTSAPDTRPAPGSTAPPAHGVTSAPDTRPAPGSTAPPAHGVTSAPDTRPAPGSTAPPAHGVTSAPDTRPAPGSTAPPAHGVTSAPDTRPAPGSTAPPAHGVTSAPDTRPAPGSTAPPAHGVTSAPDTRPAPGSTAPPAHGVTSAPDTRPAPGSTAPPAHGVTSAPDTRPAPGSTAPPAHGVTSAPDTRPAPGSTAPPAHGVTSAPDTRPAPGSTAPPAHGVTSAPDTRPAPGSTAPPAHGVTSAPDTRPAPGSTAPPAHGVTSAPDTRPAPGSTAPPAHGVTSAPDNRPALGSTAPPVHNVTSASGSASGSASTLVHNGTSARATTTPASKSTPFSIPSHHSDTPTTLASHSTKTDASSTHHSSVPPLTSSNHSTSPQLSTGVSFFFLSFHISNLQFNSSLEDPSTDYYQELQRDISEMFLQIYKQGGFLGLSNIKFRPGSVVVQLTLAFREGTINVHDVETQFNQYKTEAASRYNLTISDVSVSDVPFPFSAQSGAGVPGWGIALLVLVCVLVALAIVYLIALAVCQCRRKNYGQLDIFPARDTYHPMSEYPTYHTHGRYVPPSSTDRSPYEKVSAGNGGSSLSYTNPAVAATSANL

B1: Recombinant human Siglec-9 fusion protein (Fc fusion)
chain: TSKLLTMQSSVTVQEGLCVHVPCSFSYPSHGWIYPGPVVHGYWFREGANTDQDAPVATNNPARAVWEETRDRFHLLGDPHTKNCTLSIRDARRSDAGRYFFRMEKGSIKWNYKHHRLSVNVTALTHRPNILIPGTLESGCPQNLTCSVPWACEQGTPPMISWIGTSVSPLDPSTTRSSVLTLIPQPQDHGTSLTCQVTFPGASVTTNKTVHLNVSYPPQNLTMTVFQGDGTVSTVLGNGSSLSLPEGQSLRLVCAVDAVDSNPPARLSLSWRGLTLCPSQPSNPGVLELPWVHLRDAAEFTCRAQNPLGSQQVYLNVSLQSKATSGVTQG
notes: also called human Siglec-9 IgG fusion; recombinant Siglec 9; not shown: human IgG part of the fusion (captured with mouse anti human IgG)
In the case of B1, the binding result is reported as “binds”.
